Measured values as given in the supplement of paper PMC5998384.

Experiments:
[1] = test system: HeLa Kyoto; assay: solubility in G1/S (NP-40 vs SDS abundance) (log2 ratio); higher = more soluble; conditions: cell cycle stage: G1/S
[2] = test system: HeLa Kyoto; assay: solubility change mitosis vs G1/S (difference of NP-40 vs SDS log2 ratios) (log2 ratio difference); higher = more soluble in mitosis
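Throughout, for solubility change mitosis vs G1/S (difference of NP-40 vs SDS log2 ratios): synchronized HeLa Kyoto cells (double thymidine block for G1/S, nocodazole release for mitosis), protein amounts in NP-40 versus SDS lysates quantified by mass spectrometry, three biological replicates.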
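Throughout, for solubility in G1/S (NP-40 vs SDS abundance): HeLa Kyoto cells arrested at G1/S by double thymidine block, proteins quantified by TMT10plex mass spectrometry in mild NP-40 versus SDS extracts, three biological replicates.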

Row | Sequence | solubility in G1/S (log2) [1] | solubility change mitosis (log2) [2]
1 | MSISLSSLILLPIWINMAQIQQGGPDEKEKTTALKDLLSRIDLDELMKKDEPPLDFPDTLEGFEYAFNEKGQLRHIKTGEPFVFNYREDLHRWNQKRYEALGEIITKYVYELLEKDCNLKKVSIPVDATESEPKSFIFMSEDALTNPQKLMVLIHGSGVVRAGQWARRLIINEDLDSGTQIPFIKRAVAEGYGVIVLNPNENYIEVEKPKIHVQSSSDSSDEPAEKRERKDKVSKETKKRRDFYEKYRNPQREKEMMQLYIRENGSPEEHAIYVWDHFIAQAAAENVFFVAHSYGGLAFVELMIQREADVKNKVTAVALTDSVHNVWHQEAGKTIREWMRENCCNWVSSSEPLDTSVESMLPDCPRVSAGTDRHELTSWKSFPSIFKFFTEASEAKTSSLKPAVTRRSHRIKHEEL [FAM172A] | 0.202 | -0.00146
2 | MSKRLSPQLQHNITEDAYCETHLEPTRLFCDVDQITLCSKCFQSQEHKHHMVCGIQEAAENYRKLFQEILNTSREKLEAAKSILTDEQERMAMIQEEEQNFKKMIESEYSMRLRLLNEECEQNLQRQQECISDLNLRETLLNQAIKLATELEEMFQEMLQRLGRVGRENMEKLKESEARASEQVRSLLKLIVELEKKCGEGTLALLKNAKYSLERSKSLLLEHLEPAHITDLSLCHIRGLSSMFRVLQRHLTLDPETAHPCLALSEDLRTMRLRHGQQDGAGNPERLDFSAMVLAAESFTSGRHYWEVDVEKATRWQVGIYHGSADAKGSTARASGEKVLLTGSVMGTEWTLWVFPPLKRLFLEKKLDTVGVFLDCEHGQISFYNVTEMSLIYNFSHCAFQGALRPVFSLCIPNGDTSPDSLTILQHGPSCDATVSP [TRIML2] | 0.0183 | -0.17
3 | MSMILSASVIRVRDGLPLSASTDYEQSTGMQECRKYFKMLSRKLAQLPDRCTLKTGHYNINFISSLGVSYMMLCTENYPNVLAFSFLDELQKEFITTYNMMKTNTAVRPYCFIEFDNFIQRTKQRYNNPRSLSTKINLSDMQTEIKLRPPYQISMCELGSANGVTSAFSVDCKGAGKISSAHQRLEPATLSGIVGFILSLLCGALNLIRGFHAIESLLQSDGDDFNYIIAFFLGTAACLYQCYLLVYYTGWRNVKSFLTFGLICLCNMYLYELRNLWQLFFHVTVGAFVTLQIWLRQAQGKAPDYDV [SEC22A] | -0.17 | -0.0544
4 | MSRQTATALPTGTSKCPPSQRVPALTGTTASNNDLASLFECPVCFDYVLPPILQCQSGHLVCSNCRPKLTCCPTCRGPLGSIRNLAMEKVANSVLFPCKYASSGCEITLPHTEKADHEELCEFRPYSCPCPGASCKWQGSLDAVMPHLMHQHKSITTLQGEDIVFLATDINLPGAVDWVMMQSCFGFHFMLVLEKQEKYDGHQQFFAIVQLIGTRKQAENFAYRLELNGHRRRLTWEATPRSIHEGIATAIMNSDCLVFDTSIAQLFAENGNLGINVTISMC [SIAH1] | 0.247 | -0.11
5 | MSSESKEQHNVSPRDSAEGNDSYPSGIHLELQRESSTDFKQFETNDQCRPYHRILIERQEKSDTNFKEFVIKKLQKNCQCSPAKAKNMILGFLPVLQWLPKYDLKKNILGDVMSGLIVGILLVPQSIAYSLLAGQEPVYGLYTSFFASIIYFLLGTSRHISVGIFGVLCLMIGETVDRELQKAGYDNAHSAPSLGMVSNGSTLLNHTSDRICDKSCYAIMVGSTVTFIAGVYQVAMGFFQVGFVSVYLSDALLSGFVTGASFTILTSQAKYLLGLNLPRTNGVGSLITTWIHVFRNIHKTNLCDLITSLLCLLVLLPTKELNEHFKSKLKAPIPIELVVVVAATLASHFGKLHENYNSSIAGHIPTGFMPPKVPEWNLIPSVAVDAIAISIIGFAITVSLSEMFAKKHGYTVKANQEMYAIGFCNIIPSFFHCFTTSAALAKTLVKESTGCHTQLSGVVTALVLLLVLLVIAPLFYSLQKSVLGVITIVNLRGALRKFRDLPKMWSISRMDTVIWFVTMLSSALLSTEIGLLVGVCFSIFCVILRTQKPKSSLLGLVEESEVFESVSAYKNLQIKPGIKIFRFVAPLYYINKECFKSALYKQTVNPILIKVAWKKAAKRKIKEKVVTLGGIQDEMSVQLSHDPLELHTIVIDCSAIQFLDTAGIHTLKEVRRDYEAIGIQVLLAQCNPTVRDSLTNGEYCKKEEENLLFYSVYEAMAFAEVSKNQKGVCVPNGLSLSSD [SLC26A2] | -0.0844 | -0.0606
6 | MSSPGIDGDPKPPCLPRNGLVKLPGQPNGLGAASITKGTPATKNRPCQPPPPPTLPPPSLAAPLSRAALAGGPCTPAGGPASALAPGHPAERPPLATDEKILNGLFWYFSACEKCVLAQVCKAWRRVLYQPKFWAGLTPVLHAKELYNVLPGGEKEFVNLQGFAARGFEGFCLVGVSDLDICEFIDNYALSKKGVKAMSLKRSTITDAGLEVMLEQMQGVVRLELSGCNDFTEAGLWSSLSARITSLSVSDCINVADDAIAAISQLLPNLAELSLQAYHVTDTALAYFTARQGHSTHTLRLLSCWEITNHGVVNVVHSLPNLTALSLSGCSKVTDDGVELVAENLRKLRSLDLSWCPRITDMALEYVACDLHRLEELVLDRCVRITDTGLSYLSTMSSLRSLYLRWCCQVQDFGLKHLLALGSLRLLSLAGCPLLTTTGLSGLVQLQELEELELTNCPGATPELFKYFSQHLPRCLVIE [FBXL16] | 0.0543 | 0.212
7 | MSSPPEGKLETKAGHPPAVKAGGMRIVQKHPHTGDTKEEKDKDDQEWESPSPPKPTVFISGVIARGDKDFPPAAAQVAHQKPHASMDKHPSPRTQHIQQPRK [DAP] | -0.1 | 0.309
8 | MSTAMNFGTKSFQPRPPDKGSFPLDHLGECKSFKEKFMKCLHNNNFENALCRKESKEYLECRMERKLMLQEPLEKLGFGDLTSGKSEAKK [COX19] | 0.00408 | 0.143
9 | MSTQDERQINTEYAVSLLEQLKLFYEQQLFTDIVLIVEGTEFPCHKMVLATCSSYFRAMFMSGLSESKQTHVHLRNVDAATLQIIITYAYTGNLAMNDSTVEQLYETACFLQVEDVLQRCREYLIKKINAENCVRLLSFADLFSCEELKQSAKRMVEHKFTAVYHQDAFMQLSHDLLIDILSSDNLNVEKEETVREAAMLWLEYNTESRSQYLSSVLSQIRIDALSEVTQRAWFQGLPPNDKSVVVQGLYKSMPKFFKPRLGMTKEEMMIFIEASSENPCSLYSSVCYSPQAEKVYKLCSPPADLHKVGTVVTPDNDIYIAGGQVPLKNTKTNHSKTSKLQTAFRTVNCFYWFDAQQNTWFPKTPMLFVRIKPSLVCCEGYIYAIGGDSVGGELNRRTVERYDTEKDEWTMVSPLPCAWQWSAAVVVHDCIYVMTLNLMYCYFPRSDSWVEMAMRQTSRSFASAAAFGDKIFYIGGLHIATNSGIRLPSGTVDGSSVTVEIYDVNKNEWKMAANIPAKRYSDPCVRAVVISNSLCVFMRETHLNERAKYVTYQYDLELDRWSLRQHISERVLWDLGRDFRCTVGKLYPSCLEESPWKPPTYLFSTDGTEEFELDGEMVALPPV [KBTBD2] | -0.319 | -0.00685
10 | MSVDKAELCGSLLTWLQTFHVPSPCASPQDLSSGLAVAYVLNQIDPSWFNEAWLQGISEDPGPNWKLKVSNLKMVLRSLVEYSQDVLAHPVSEEHLPDVSLIGEFSDPAELGKLLQLVLGCAISCEKKQDHIQRIMTLEESVQHVVMEAIQELMTKDTPDSLSPETYGNFDSQSRRYYFLSEEAEEGDELQQRCLDLERQLMLLSEEKQSLAQENAGLRERMGRPEGEGTPGLTAKKLLLLQSQLEQLQEENFRLESGREDERLRCAELEREVAELQHRNQALTSLAQEAQALKDEMDELRQSSERAGQLEATLTSCRRRLGELRELRRQVRQLEERNAGHAERTRQLEDELRRAGSLRAQLEAQRRQVQELQGQRQEEAMKAEKWLFECRNLEEKYESVTKEKERLLAERDSLREANEELRCAQLQPRGLTQADPSLDPTSTPVDNLAAEILPAELRETLLRLQLENKRLCRQEAADRERQEELQRHLEDANRARHGLETQHRLNQQQLSELRAQVEDLQKALQEQGGKTEDAISILLKRKLEEHLQKLHEADLELQRKREYIEELEPPTDSSTARRIEELQHNLQKKDADLRAMEERYRRYVDKARMVMQTMEPKQRPAAGAPPELHSLRTQLRERDVRIRHLEMDFEKSRSQREQEEKLLISAWYNMGMALQQRAGEERAPAHAQSFLAQQRLATNSRRGPLGRLASLNLRPTDKH [HOOK2] | 0.231 | -0.0619
11 | MSWIPFKIGQPKKQIVPKTVERDFEREYGKLQQLEEQTRRLQKDMKKSTDADLAMSKSAVKISLDLLSNPLCEQDQDLLNMVTALDTAMKRMDAFNQEKVNQIQKTVIEPLKKFGSVFPSLNMAVKRREQALQDYRRLQAKVEKYEEKEKTGPVLAKLHQAREELRPVREDFEAKNRQLLEEMPRFYGSRLDYFQPSFESLIRAQVVYYSEMHKIFGDLSHQLDQPGHSDEQRERENEAKLSELRALSIVADD [BIN3] | 0.418 | 0.0471
12 | MSWLLFLAHRVALAALPCRRGSRGFGMFYAVRRGRKTGVFLTWNECRAQVDRFPAARFKKFATEDEAWAFVRKSASPEVSEGHENQHGQESEAKASKRLREPLDGDGHESAEPYAKHMKPSVEPAPPVSRDTFSYMGDFVVVYTDGCCSSNGRRRPRAGIGVYWGPGHPLNVGIRLPGRQTNQRAEIHAACKAIEQAKTQNINKLVLYTDSMFTINGITNWVQGWKKNGWKTSAGKEVINKEDFVALERLTQGMDIQWMHVPGHSGFIGNEEADRLAREGAKQSED [RNASEH1] | 0.274 | -0.0935
13 | MTALSARMLTRSRSLGPGAGPRGCREEPGPLRRREAAAEARKSHSPVKRPRKAQRLRVAYEGSDSEKGEGAEPLKVPVWEPQDWQQQLVNIRAMRNKKDAPVDHLGTEHCYDSSAPPKVRRYQVLLSLMLSSQTKDQVTAGAMQRLRARGLTVDSILQTDDATLGKLIYPVGFWRSKVKYIKQTSAILQQHYGGDIPASVAELVALPGVGPKMAHLAMAVAWGTVSGIAVDTHVHRIANRLRWTKKATKSPEETRAALEEWLPRELWHEINGLLVGFGQQTCLPVHPRCHACLNQALCPAAQGL [NTHL1] | 0.0579 | 0.29
14 | MTLKASEGESGGSMHTALSDLYLEHLLQKRSRPEAVSHPLNTVTEDMYTNGSPAPGSPAQVKGQEVRKVRLIQFEKVTEEPMGITLKLNEKQSCTVARILHGGMIHRQGSLHVGDEILEINGTNVTNHSVDQLQKAMKETKGMISLKVIPNQQSRLPALQMFMRAQFDYDPKKDNLIPCKEAGLKFATGDIIQIINKDDSNWWQGRVEGSSKESAGLIPSPELQEWRVASMAQSAPSEAPSCSPFGKKKKYKDKYLAKHSSIFDQLDVVSYEEVVRLPAFKRKTLVLIGASGVGRSHIKNALLSQNPEKFVYPVPYTTRPPRKSEEDGKEYHFISTEEMTRNISANEFLEFGSYQGNMFGTKFETVHQIHKQNKIAILDIEPQTLKIVRTAELSPFIVFIAPTDQGTQTEALQQLQKDSEAIRSQYAHYFDLSLVNNGVDETLKKLQEAFDQACSSPQWVPVSWVY [MPP1] | 0.098 | -0.0545
15 | MTMGDKKSPTRPKRQAKPAADEGFWDCSVCTFRNSAEAFKCSICDVRKGTSTRKPRINSQLVAQQVAQQYATPPPPKKEKKEKVEKQDKEKPEKDKEISPSVTKKNTNKKTKPKSDILKDPPSEANSIQSANATTKTSETNHTSRPRLKNVDRSTAQQLAVTVGNVTVIITDFKEKTRSSSTSSSTVTSSAGSEQQNQSSSGSESTDKGSSRSSTPKGDMSAVNDESF [RYBP] | 0.252 | 0.0865
